From publication PMC8836807 (Science Advances, 2022)

Molecular target: 6His-Nup60 aa27–539ΔHRΔFG-mGFP-StrepII (budding yeast (S. cerevisiae), UniProt P39705 27-539, ΔHR (aa48–162) | ΔFG (aa381–504))
Test: GUV co-recruitment assay

B1: 6His-SUMO-Nup2 aa83–136–TagmBFPII-StrepII (domain or fragment, budding yeast (S. cerevisiae), UniProt P32499 83-136, looked up)
chain: NSPTTESNSRLKALNLQFKAKVDDLVLGKPLADLRPLFTRYELYIKNILEAPVK
binding result: binds
